From article PMC4329988

Biological target: phosphatidyl inositol 5-phosphate 4-kinase 2β subunit (PI5P4K2β), C-terminal 3xFLAG and two 6xHis tags (chicken (endogenous in DT40))
Assay: affinity purification with mass spectrometry; SILAC-iPAC: lysates of JPR3 cells (tagged PI5P4K2β) and tag-less wild-type DT40 cells, differentially SILAC labelled (K6R6 or K0R0, reciprocal labellings), mixed 1:1; captured in parallel on EZview ANTI-FLAG M2 Affinity Gel and TALON Metal Affinity Resin for 1 h; lysis buffer 1x PBS pH 7.4, 1% Triton X-100; eluted with 3xFLAG peptide or 150 mM imidazole; LC-MS/MS, MaxQuant ratios

ratio of PI5P4K2β:PI5P4K2α in the pull-down: 1.28
B1: phosphatidyl inositol 5-phosphate 4-kinase 2α subunit (PI5P4K2α) (natural protein)
chain: MAAPGTVASVMASKTKTKKKHFVVQKVKLFRASDPLLSVLMWGVNHSINELSHVQIPVMLMPDDFKAYSKIKVDNHLFNKENMPSHFKFKEYCPMVFRNLRERFGIDDQDFQNSLTRSAPLANDSQARSGARFHTSYDKRYIIKTITSEDVAEMHNILKKYHQFIVECHGNTLLPQFLGMYRLTVDGVEIYMIVTRNVFSHRLSVYRKYDLKGSTVAREASDKEKAKELPTFKDNDFINDGQKIHIDENNKRMFLEKLKKDVEFLAQLKLMDYSLLVGIHDVERAEQEEVECEENDGEDEGESDGTHPIGTPPDSPGNTLNSSLPLAPGEFDPAIDVYGIKSHESAPRKEVYFMAIIDILTHYDAKKKAAHAAKTVKHGAGAEISTVNPEQYSKRFLDFIANILT
